According to patent US20230078601A1 (CLEVELAND CLINIC FOUNDATION, published 2023):

How the values were obtained:
[1] = molecular target: human Anti-Mullerian Hormone Receptor II (AMHR2), full length (human) (UniProt Q16671); experiment: flow cytometry on primary HGSOC-1 cells
[2] = molecular target: human Anti-Mullerian Hormone Receptor II (AMHR2), full length (human) (UniProt Q16671); experiment: flow cytometry on AMHR2-OVCAR8 cells, mAb at 1 µg/ml
[3] = molecular target: human Anti-Mullerian Hormone Receptor II (AMHR2), full length (human) (UniProt Q16671); experiment: flow cytometry on primary HGSOC-2 cells
[4] = molecular target: human Anti-Mullerian Hormone Receptor II (AMHR2), full length (human) (UniProt Q16671); experiment: flow cytometry competition on AMHR2-OVCAR8 cells: 4D12G1 mAb at 1 µg/ml with recombinant ovalbumin at 100 µg/ml; 91 % without competitor in FIG. 2E
[5] = molecular target: human Anti-Mullerian Hormone Receptor II (AMHR2), full length (human) (UniProt Q16671); experiment: flow cytometry competition on AMHR2-OVCAR8 cells: 4D12G1 mAb at 1 µg/ml with recombinant ovalbumin at 10 µg/ml; 91 % without competitor in FIG. 2E
[6] = molecular target: human Anti-Mullerian Hormone Receptor II (AMHR2), full length (human) (UniProt Q16671); experiment: flow cytometry competition on AMHR2-OVCAR8 cells: 4D12G1 mAb at 1 µg/ml with recombinant ovalbumin at 1 µg/ml; 91 % without competitor in FIG. 2E

Sequence of human Anti-Mullerian Hormone Receptor II (AMHR2), full length (human) (Q16671 18-573 limits assumed): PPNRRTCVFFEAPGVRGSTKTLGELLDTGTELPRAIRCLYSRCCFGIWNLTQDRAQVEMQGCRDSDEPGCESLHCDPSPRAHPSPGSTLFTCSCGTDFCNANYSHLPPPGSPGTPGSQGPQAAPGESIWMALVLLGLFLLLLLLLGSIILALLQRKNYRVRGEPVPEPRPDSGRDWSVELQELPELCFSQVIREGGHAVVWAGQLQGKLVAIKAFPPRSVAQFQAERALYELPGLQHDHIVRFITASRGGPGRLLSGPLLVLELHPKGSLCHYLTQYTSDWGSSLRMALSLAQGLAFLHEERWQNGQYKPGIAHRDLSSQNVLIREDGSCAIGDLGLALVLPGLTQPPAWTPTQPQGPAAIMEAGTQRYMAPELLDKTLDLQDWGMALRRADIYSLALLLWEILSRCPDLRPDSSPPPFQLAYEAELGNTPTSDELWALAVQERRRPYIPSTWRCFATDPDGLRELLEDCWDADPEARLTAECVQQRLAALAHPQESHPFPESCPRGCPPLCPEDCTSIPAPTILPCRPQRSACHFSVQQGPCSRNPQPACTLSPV

| Substance | percent of cells bound [1] [%] | % of cells in the positive gate [2] [%] | percent of cells bound [3] [%] | % of cells in the 4D12G1-positive gate with ovalbumin at 100 µg/ml [4] [%] | % of cells in the 4D12G1-positive gate with ovalbumin at 10 µg/ml [5] [%] | % of cells in the 4D12G1-positive gate with ovalbumin at 1 µg/ml [6] [%] |
| --- | --- | --- | --- | --- | --- | --- |
| isotype control mAb (antibody) | 1.5 | 1.1 | 1.1 | – | – | – |
| recombinant ovalbumin (from UniProt P01012 2-386) | – | – | – | 88 | 86 | 88 |
